B1: SPAM1-EEPQ: C-terminally truncated human PH20, precursor 479 aa (SEQ ID NO:21), mature 444 aa (SEQ ID NO:73) (protein, listed as Homo sapiens)
chain 1: MGVLKFKHIFFRSFVKSSGVSQIVFTFLLIPCCLTLNFRAPPVIPNVPFLWAWNAPSEFCLGKFDEPLDMSLFSFIGSPRINATGQGVTIFYVDRLGYYPYIDSITGVTVNGGIPQKISLQDHLDKAKKDITFYMPVDNLGMAVIDWEEWRPTWARNWKPKDVYKNRSIELVQQQNVQLSLTEATEKAKQEFEKAGKDFLVETIKLGKLLRPNHLWGYYLFPDCYNHHYKKPGYNGSCFNVEIKRNDDLSWLWNESTALYPSIYLNTQQSPVAATLYVRNRVREAIRVSKIPDAKSPLPVFAYTRIVFTDQVLKFLSQDELVYTFGETVALGASGIVIWGTLSIMRSMKSCLLLDNYMETILNPYIINVTLAAKMCSQVLCQEQGVCIRKNWNSSDYLHLNPDNFAIQLEKGGKFTVRGKPTLEDLEQFSEKFYCSCYSTLSCKEKADVKDTDAVDVCIADGVCIDAFLKPPMETEEPQ
chain 2: B1 chain 1
modifications: HuPH20 precursor 1-479; Mature HuPH20 36-479
B2: SPAM1-QIFY: C-terminally truncated human PH20, precursor 482 aa (SEQ ID NO:18), mature 447 aa (SEQ ID NO:70) (protein, listed as Homo sapiens)
chain 1: MGVLKFKHIFFRSFVKSSGVSQIVFTFLLIPCCLTLNFRAPPVIPNVPFLWAWNAPSEFCLGKFDEPLDMSLFSFIGSPRINATGQGVTIFYVDRLGYYPYIDSITGVTVNGGIPQKISLQDHLDKAKKDITFYMPVDNLGMAVIDWEEWRPTWARNWKPKDVYKNRSIELVQQQNVQLSLTEATEKAKQEFEKAGKDFLVETIKLGKLLRPNHLWGYYLFPDCYNHHYKKPGYNGSCFNVEIKRNDDLSWLWNESTALYPSIYLNTQQSPVAATLYVRNRVREAIRVSKIPDAKSPLPVFAYTRIVFTDQVLKFLSQDELVYTFGETVALGASGIVIWGTLSIMRSMKSCLLLDNYMETILNPYIINVTLAAKMCSQVLCQEQGVCIRKNWNSSDYLHLNPDNFAIQLEKGGKFTVRGKPTLEDLEQFSEKFYCSCYSTLSCKEKADVKDTDAVDVCIADGVCIDAFLKPPMETEEPQIFY
chain 2: LNFRAPPVIPNVPFLWAWNAPSEFCLGKFDEPLDMSLFSFIGSPRINATGQGVTIFYVDRLGYYPYIDSITGVTVNGGIPQKISLQDHLDKAKKDITFYMPVDNLGMAVIDWEEWRPTWARNWKPKDVYKNRSIELVQQQNVQLSLTEATEKAKQEFEKAGKDFLVETIKLGKLLRPNHLWGYYLFPDCYNHHYKKPGYNGSCFNVEIKRNDDLSWLWNESTALYPSIYLNTQQSPVAATLYVRNRVREAIRVSKIPDAKSPLPVFAYTRIVFTDQVLKFLSQDELVYTFGETVALGASGIVIWGTLSIMRSMKSCLLLDNYMETILNPYIINVTLAAKMCSQVLCQEQGVCIRKNWNSSDYLHLNPDNFAIQLEKGGKFTVRGKPTLEDLEQFSEKFYCSCYSTLSCKEKADVKDTDAVDVCIADGVCIDAFLKPPMETEEPQIFY
modifications: HuPH20 precursor 1-482; Mature HuPH20 36-482
B3: SPAM1-EPQI: C-terminally truncated human PH20, precursor 480 aa (SEQ ID NO:20), mature 445 aa (SEQ ID NO:72) (protein, listed as Homo sapiens)
chain 1: MGVLKFKHIFFRSFVKSSGVSQIVFTFLLIPCCLTLNFRAPPVIPNVPFLWAWNAPSEFCLGKFDEPLDMSLFSFIGSPRINATGQGVTIFYVDRLGYYPYIDSITGVTVNGGIPQKISLQDHLDKAKKDITFYMPVDNLGMAVIDWEEWRPTWARNWKPKDVYKNRSIELVQQQNVQLSLTEATEKAKQEFEKAGKDFLVETIKLGKLLRPNHLWGYYLFPDCYNHHYKKPGYNGSCFNVEIKRNDDLSWLWNESTALYPSIYLNTQQSPVAATLYVRNRVREAIRVSKIPDAKSPLPVFAYTRIVFTDQVLKFLSQDELVYTFGETVALGASGIVIWGTLSIMRSMKSCLLLDNYMETILNPYIINVTLAAKMCSQVLCQEQGVCIRKNWNSSDYLHLNPDNFAIQLEKGGKFTVRGKPTLEDLEQFSEKFYCSCYSTLSCKEKADVKDTDAVDVCIADGVCIDAFLKPPMETEEPQI
chain 2: LNFRAPPVIPNVPFLWAWNAPSEFCLGKFDEPLDMSLFSFIGSPRINATGQGVTIFYVDRLGYYPYIDSITGVTVNGGIPQKISLQDHLDKAKKDITFYMPVDNLGMAVIDWEEWRPTWARNWKPKDVYKNRSIELVQQQNVQLSLTEATEKAKQEFEKAGKDFLVETIKLGKLLRPNHLWGYYLFPDCYNHHYKKPGYNGSCFNVEIKRNDDLSWLWNESTALYPSIYLNTQQSPVAATLYVRNRVREAIRVSKIPDAKSPLPVFAYTRIVFTDQVLKFLSQDELVYTFGETVALGASGIVIWGTLSIMRSMKSCLLLDNYMETILNPYIINVTLAAKMCSQVLCQEQGVCIRKNWNSSDYLHLNPDNFAIQLEKGGKFTVRGKPTLEDLEQFSEKFYCSCYSTLSCKEKADVKDTDAVDVCIADGVCIDAFLKPPMETEEPQI
modifications: HuPH20 precursor 1-480; Mature HuPH20 36-480
B4: SPAM1-PQIF: C-terminally truncated human PH20, precursor 481 aa (SEQ ID NO:19), mature 446 aa (SEQ ID NO:71) (protein, listed as Homo sapiens)
chain 1: MGVLKFKHIFFRSFVKSSGVSQIVFTFLLIPCCLTLNFRAPPVIPNVPFLWAWNAPSEFCLGKFDEPLDMSLFSFIGSPRINATGQGVTIFYVDRLGYYPYIDSITGVTVNGGIPQKISLQDHLDKAKKDITFYMPVDNLGMAVIDWEEWRPTWARNWKPKDVYKNRSIELVQQQNVQLSLTEATEKAKQEFEKAGKDFLVETIKLGKLLRPNHLWGYYLFPDCYNHHYKKPGYNGSCFNVEIKRNDDLSWLWNESTALYPSIYLNTQQSPVAATLYVRNRVREAIRVSKIPDAKSPLPVFAYTRIVFTDQVLKFLSQDELVYTFGETVALGASGIVIWGTLSIMRSMKSCLLLDNYMETILNPYIINVTLAAKMCSQVLCQEQGVCIRKNWNSSDYLHLNPDNFAIQLEKGGKFTVRGKPTLEDLEQFSEKFYCSCYSTLSCKEKADVKDTDAVDVCIADGVCIDAFLKPPMETEEPQIF
chain 2: LNFRAPPVIPNVPFLWAWNAPSEFCLGKFDEPLDMSLFSFIGSPRINATGQGVTIFYVDRLGYYPYIDSITGVTVNGGIPQKISLQDHLDKAKKDITFYMPVDNLGMAVIDWEEWRPTWARNWKPKDVYKNRSIELVQQQNVQLSLTEATEKAKQEFEKAGKDFLVETIKLGKLLRPNHLWGYYLFPDCYNHHYKKPGYNGSCFNVEIKRNDDLSWLWNESTALYPSIYLNTQQSPVAATLYVRNRVREAIRVSKIPDAKSPLPVFAYTRIVFTDQVLKFLSQDELVYTFGETVALGASGIVIWGTLSIMRSMKSCLLLDNYMETILNPYIINVTLAAKMCSQVLCQEQGVCIRKNWNSSDYLHLNPDNFAIQLEKGGKFTVRGKPTLEDLEQFSEKFYCSCYSTLSCKEKADVKDTDAVDVCIADGVCIDAFLKPPMETEEPQIF
modifications: HuPH20 precursor 1-481; Mature HuPH20 36-481
B5: SPAM1-TEEP: C-terminally truncated human PH20, precursor 478 aa (SEQ ID NO:22), mature 443 aa (SEQ ID NO:74) (protein, listed as Homo sapiens)
chain 1: MGVLKFKHIFFRSFVKSSGVSQIVFTFLLIPCCLTLNFRAPPVIPNVPFLWAWNAPSEFCLGKFDEPLDMSLFSFIGSPRINATGQGVTIFYVDRLGYYPYIDSITGVTVNGGIPQKISLQDHLDKAKKDITFYMPVDNLGMAVIDWEEWRPTWARNWKPKDVYKNRSIELVQQQNVQLSLTEATEKAKQEFEKAGKDFLVETIKLGKLLRPNHLWGYYLFPDCYNHHYKKPGYNGSCFNVEIKRNDDLSWLWNESTALYPSIYLNTQQSPVAATLYVRNRVREAIRVSKIPDAKSPLPVFAYTRIVFTDQVLKFLSQDELVYTFGETVALGASGIVIWGTLSIMRSMKSCLLLDNYMETILNPYIINVTLAAKMCSQVLCQEQGVCIRKNWNSSDYLHLNPDNFAIQLEKGGKFTVRGKPTLEDLEQFSEKFYCSCYSTLSCKEKADVKDTDAVDVCIADGVCIDAFLKPPMETEEP
chain 2: LNFRAPPVIPNVPFLWAWNAPSEFCLGKFDEPLDMSLFSFIGSPRINATGQGVTIFYVDRLGYYPYIDSITGVTVNGGIPQKISLQDHLDKAKKDITFYMPVDNLGMAVIDWEEWRPTWARNWKPKDVYKNRSIELVQQQNVQLSLTEATEKAKQEFEKAGKDFLVETIKLGKLLRPNHLWGYYLFPDCYNHHYKKPGYNGSCFNVEIKRNDDLSWLWNESTALYPSIYLNTQQSPVAATLYVRNRVREAIRVSKIPDAKSPLPVFAYTRIVFTDQVLKFLSQDELVYTFGETVALGASGIVIWGTLSIMRSMKSCLLLDNYMETILNPYIINVTLAAKMCSQVLCQEQGVCIRKNWNSSDYLHLNPDNFAIQLEKGGKFTVRGKPTLEDLEQFSEKFYCSCYSTLSCKEKADVKDTDAVDVCIADGVCIDAFLKPPMETEEP
modifications: HuPH20 precursor 1-478; Mature HuPH20 36-478

Tested on: CHO-S cells
Test: Western blot analysis of PH20 expression in media and cells after transient expression
Format: cell-based, Chinese Hamster
Conditions: media versus cells
In short: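 PH20 expression and solubility were judged by anti-PH20 Western blot of non-reduced media and cell fractions, with expression shown by a ~66 kDa band. Samples came from CHO-S cells transiently transfected (GeneJuice) with mutant PH20-HZ24 DNA and cultured 48-72 h. GPI-anchored mutants were cleaved with PI-PLC to release soluble protein.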

Molecule | Expressed in Media
B1 | YES
B2 | YES
B3 | YES
B4 | YES
B5 | YES

Tested on: not listed separately
Test: Microtiter hyaluronidase activity assay with biotinylated-hyaluronic acid
Format: biochemical
Conditions: Table 6; 72 hour post transfection supernatant; pH 5.5

Molecule | pH 5.5 Activity [Units/ml]
B1 | 2.0745
B2 | 1.647
B3 | 1.6425
B4 | 1.701
B5 | 1.584

Same assay, conditions: Table 6; 72 hour post transfection supernatant; pH 7.4

Molecule | pH 7.4 Activity [Units/ml]
B1 | 1.917
B2 | 2.032
B3 | 2.1825
B4 | 1.818
B5 | 1.764
